Legend:
Assay in all cases: EC50 of free RNA motif oligo competing protein binding to immobilised probe
LSM6 = target: T1, LSM6 (UniProt P62312)
T1 sequence: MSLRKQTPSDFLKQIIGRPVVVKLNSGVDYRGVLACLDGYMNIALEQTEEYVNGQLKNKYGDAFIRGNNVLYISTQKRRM
Outline: (§1)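 Kd was calculated as EC50, taken from a four-parameter log-logistic fit, multiplied by a protein-dependent depletion factor. The assay used HEK293-FT lysate (2.5 mg protein/well) pre-incubated for 1 h at 4°C with free RNA oligos (0 nM to 30 μM), then incubated for 30 min at 4°C with the matching oligos bound through a 5′-amino-C6 linker to NHS-Sepharose beads. Bound proteins were measured by label-free LC-MS/MS and normalised to the control.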

CSTF1 = target: T2, CSTF1 (UniProt Q05048)
T2 sequence: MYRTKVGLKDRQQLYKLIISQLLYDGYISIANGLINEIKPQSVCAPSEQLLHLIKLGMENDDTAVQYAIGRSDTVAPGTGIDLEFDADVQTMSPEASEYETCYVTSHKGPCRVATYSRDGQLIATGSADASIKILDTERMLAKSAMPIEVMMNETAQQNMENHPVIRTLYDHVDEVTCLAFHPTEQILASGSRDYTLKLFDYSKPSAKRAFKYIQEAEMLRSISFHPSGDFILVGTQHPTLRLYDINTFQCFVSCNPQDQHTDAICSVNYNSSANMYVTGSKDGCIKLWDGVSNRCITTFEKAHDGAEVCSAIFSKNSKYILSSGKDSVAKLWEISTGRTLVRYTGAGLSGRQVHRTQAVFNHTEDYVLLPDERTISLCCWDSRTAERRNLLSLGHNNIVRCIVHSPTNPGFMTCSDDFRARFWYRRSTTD
Outline: as §1

LSM1 = target: T3, LSM1 (UniProt O15116)
T3 sequence: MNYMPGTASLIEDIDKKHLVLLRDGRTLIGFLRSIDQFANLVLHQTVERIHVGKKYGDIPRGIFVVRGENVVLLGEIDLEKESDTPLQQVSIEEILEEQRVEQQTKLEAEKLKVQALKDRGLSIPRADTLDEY
Outline: as §1

SSB = target: T4, SSB (UniProt P05455)
T4 sequence: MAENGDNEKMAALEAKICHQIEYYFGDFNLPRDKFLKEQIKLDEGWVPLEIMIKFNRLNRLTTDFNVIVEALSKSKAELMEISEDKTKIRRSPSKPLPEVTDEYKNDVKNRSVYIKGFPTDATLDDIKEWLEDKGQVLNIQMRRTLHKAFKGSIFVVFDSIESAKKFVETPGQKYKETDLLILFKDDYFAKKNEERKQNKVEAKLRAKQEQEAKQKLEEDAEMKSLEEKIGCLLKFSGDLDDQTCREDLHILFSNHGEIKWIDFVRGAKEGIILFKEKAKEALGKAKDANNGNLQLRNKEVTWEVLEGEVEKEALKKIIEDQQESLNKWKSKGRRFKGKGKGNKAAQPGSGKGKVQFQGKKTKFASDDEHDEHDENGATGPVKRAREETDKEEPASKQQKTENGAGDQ
Outline: as §1

HNRNPDL = target: T5, HNRNPDL (UniProt O14979)
T5 sequence: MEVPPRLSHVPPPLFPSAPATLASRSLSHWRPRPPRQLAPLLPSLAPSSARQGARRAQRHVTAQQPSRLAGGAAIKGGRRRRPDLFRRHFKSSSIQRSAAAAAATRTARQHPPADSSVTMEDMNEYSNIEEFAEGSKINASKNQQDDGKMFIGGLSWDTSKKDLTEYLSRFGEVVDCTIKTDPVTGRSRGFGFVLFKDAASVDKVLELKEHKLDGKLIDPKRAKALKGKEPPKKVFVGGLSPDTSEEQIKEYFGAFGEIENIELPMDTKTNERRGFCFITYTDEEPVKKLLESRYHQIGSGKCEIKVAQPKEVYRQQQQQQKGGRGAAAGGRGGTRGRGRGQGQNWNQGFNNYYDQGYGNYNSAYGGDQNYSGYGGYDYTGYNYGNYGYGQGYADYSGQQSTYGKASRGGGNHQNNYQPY
Outline: as §1

RPS16 = RPS16 (UniProt P62249)
Outline: as §1

Sequence	EC50 (LSM6) [nM]	EC50 (CSTF1) [nM]	EC50 (LSM1) [nM]	EC50 (SSB) [nM]	EC50 (HNRNPDL) [nM]	EC50 (RPS16) [nM]
UAUUUAU	447	574	395	300	3480	
CUGUCCU				2640		175
AAUAAA	797	53.9	188		2090	764

From the supplement of paper PMC6379048
